# Results from patent US20060153775A1.
# Positions of bridges follow the written chain, without caps; N, C: chain ends. Non-standard residues stand in square brackets, D forms with d. No end group written: not given here. AEEA = NCCOCCOCC(=O)O
# Legend:
# [1] = biological target: binding target for TKPPR on HAEC (human aortic endothelial cells); experiment: competition of 2% D47 bubble binding to HAEC; D54 200 µM
# [2] = biological target: binding target for TKPPR on HAEC (human aortic endothelial cells); experiment: competition of 2% D47 bubble binding to HAEC; D54 50 µM
# [3] = biological target: binding target for TKPPR on HAEC (human aortic endothelial cells); experiment: competition of 2% D47 bubble binding to HAEC; D54 100 µM
# [4] = biological target: binding target for TKPPR on HAEC (human aortic endothelial cells); experiment: competition of 1% D47 bubble binding to HAEC; TKPR 10 µM
# [5] = biological target: binding target for TKPPR on HAEC (human aortic endothelial cells); experiment: competition of 1% D47 bubble binding to HAEC; TKPR 25 µM
# [6] = biological target: binding target for TKPPR on HAEC (human aortic endothelial cells); experiment: competition of 1% D47 bubble binding to HAEC; TKPR 100 µM
# [7] = biological target: binding target for TKPPR on HAEC (human aortic endothelial cells); experiment: competition of 1% D47 bubble binding to HAEC; TKPR 50 µM
# [8] = biological target: binding target for TKPPR on HAEC (human aortic endothelial cells); experiment: competition of 1% D47 bubble binding to HAEC; TKPR 5 µM
# [9] = biological target: binding target for TKPPR on HAEC (human aortic endothelial cells); experiment: fluorescent beads on confluent HAEC, static 30 min, image analysis
# VEGF receptors on HUVECs = experiment: competition with 125I-VEGF for binding to HUVECs
# [10] = biological target: binding target for TKPPR on HAEC (human aortic endothelial cells); experiment: competition of 2% D47 bubble binding to HAEC; D55 50 µM
# [11] = biological target: binding target for TKPPR on HAEC (human aortic endothelial cells); experiment: competition of 2% D47 bubble binding to HAEC; D55 200 µM
# [12] = biological target: binding target for TKPPR on HAEC (human aortic endothelial cells); experiment: competition of 2% D47 bubble binding to HAEC; D55 100 µM
# [13] = biological target: binding target for TKPPR on HAEC (human aortic endothelial cells); experiment: beads perfused over HAEC in a parallel plate flow cell, 37 C
binder,measurement,setting,value
CTKPPRC [linear CTKPPRC (D54)],Bubbles Bound % in presence of competitor,[1],88 % of control
same,Bubbles Bound % in presence of competitor,[2],97 % of control
same,Bubbles Bound % in presence of competitor,[3],78 % of control
TKPR [Tuftsin (TKPR)],Bubbles Bound in presence of competitor,[4],976 bubbles
same,Bubbles Bound in presence of competitor,[5],1170 bubbles
same,Bubbles Bound in presence of competitor,[6],556 bubbles
same,Bubbles Bound in presence of competitor,[7],904 bubbles
same,Bubbles Bound in presence of competitor,[8],1150 bubbles
"GRGDSP (also: coupled by EDAC to carboxylate-modified FluoSpheres, site not given here) [GRGDSP-conjugated fluorescent microspheres]",Integrated density of bound beads (arbitrary units),[9],28.6
"[AEEA]TKPPR (also: tetramer of four TKPPR on a branched non-peptide scaffold, one Oregon Green label on scaffold) [TKPPR tetramer D41, OG-(TKPPR)4]",IC50,VEGF receptors on HUVECs,10 µM
CTKPPRC (disulfide 1-7 (inferred)) [cyclic disulfide CTKPPRC (D55)],Bubbles Bound % in presence of competitor,[10],97 % of control
same,Bubbles Bound % in presence of competitor,[11],99 % of control
same,Bubbles Bound % in presence of competitor,[12],71 % of control
"TKPPR (also: amino group coupled by EDAC to carboxylate-modified FluoSpheres, which amino group not given here) [TKPPR-conjugated red fluorescent microspheres]",Integrated density of bound beads (arbitrary units),[9],230
same,Bound at 1.53 dynes/cm^2,[13],86 beads
